We go through five molecules from US20220332803A1 (SIEMENS HEALTHCARE DIAGNOSTICS, published 2022).

For orientation: Kd means the equilibrium constant for the complex coming apart. As a reminder, the koff is the first-order rate constant of dissociation. The kon is the second-order rate constant of association.

Experiment [1] deals with T1, Hog Intrinsic Factor (Sus scrofa).
T1 construct: The source of the HIF sample used in the ELISAs is not described; also called HIF; Intrinsic Factor from Sus scrofa
T1 chain: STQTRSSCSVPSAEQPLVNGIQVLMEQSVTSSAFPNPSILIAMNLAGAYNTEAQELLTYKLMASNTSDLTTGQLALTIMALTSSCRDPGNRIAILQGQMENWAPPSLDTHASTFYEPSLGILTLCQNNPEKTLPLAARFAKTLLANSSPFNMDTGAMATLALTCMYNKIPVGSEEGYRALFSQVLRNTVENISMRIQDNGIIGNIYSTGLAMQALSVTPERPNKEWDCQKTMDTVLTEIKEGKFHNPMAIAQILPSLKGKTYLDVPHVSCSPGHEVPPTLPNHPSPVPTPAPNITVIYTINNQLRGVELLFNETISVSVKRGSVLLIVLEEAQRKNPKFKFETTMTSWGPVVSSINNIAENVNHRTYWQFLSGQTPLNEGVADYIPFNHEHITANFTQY
The experiment in a line: ELISA, single point, hybridoma supernatant on plate coated with Hog Intrinsic Factor, OD 650 nm. As for the experimental part:
One week after the last injection, the mice were bled, and the serum samples were tested for peptide-specific antibodies in an ELISA assay with corresponding ovalbumin conjugates and free peptides. All ELISA steps were performed at room temperature. Nunc Maxi-Sorp™ flat-bottom ELISA plates were coated with peptide or peptide-OVA conjugate at 2 and 1 μg/mL in PBS, respectively, at 50 μl per well for 1 hour. The plates were flicked dry, and the remaining binding sites were blocked by adding 200 μl per well of blocking solution (0.5% Casein in PBS containing 0.05% Tween 20) for 1 hour. Plates were washed three times with Milli-Q water containing 0.05% Tween 20, and antibody samples to be tested (serum, hybridoma supernatant, or mAb dilutions in PBS) were placed in the wells of the plates at volume 50 μl per well. After incubation for one hour, the plates were washed again as described above, and goat anti-mouse IgG-HRP conjugate diluted 1:3,000 in blocking solution was added at 50 μl per well for 1 hour. The plates were washed, and TMB substrate (Moss, Pasadena, Md.) was added at 100 μl per well for 15 minutes. Optical density of the samples at 650 nm was measured using an ELISA plate reader.
Mice received prefusion boosts on three consecutive days with the same immunogen (10 μg/dose/animal in PBS, IP), and on the fourth day, mouse spleens were harvested and frozen. Several years later, when recombinant Pig TCN1 protein became commercially available, thawed immune splenocytes were used for hybridoma preparation according to the standard procedure described above in Example 1. Hybridoma supernatants were screened for binding both rec Pig TCN1 (LifeSpan BioSciences, LS-G23154, Seattle, Wash.) and partially purified native Hog-R-protein adsorbed on ELISA plates at 1 μg/mL in 50 μl volume per well. Several hybridomas giving positive signals on both antigens were selected. […] No cross-reactivity of the monoclonal antibodies with Hog Intrinsic Factor was observed. The hybridomas were sub-cloned by limiting dilution, expanded, and frozen.
(In general: In an ELISA, binding on a coated surface is turned into a signal by an enzyme label.)

Experiment [2] deals with T2, recombinant yeast-produced non-glycosylated pig TCN1 protein (Lifespan Biosciences, LS-G23154) (Sus scrofa, UniProt P17630 26-417).
T2 construct: Bought protein, Mw 46.3 kDa, non-glycosylated; also called rec Pig TCN1; recombinant Pig TCN1
T2 sequence: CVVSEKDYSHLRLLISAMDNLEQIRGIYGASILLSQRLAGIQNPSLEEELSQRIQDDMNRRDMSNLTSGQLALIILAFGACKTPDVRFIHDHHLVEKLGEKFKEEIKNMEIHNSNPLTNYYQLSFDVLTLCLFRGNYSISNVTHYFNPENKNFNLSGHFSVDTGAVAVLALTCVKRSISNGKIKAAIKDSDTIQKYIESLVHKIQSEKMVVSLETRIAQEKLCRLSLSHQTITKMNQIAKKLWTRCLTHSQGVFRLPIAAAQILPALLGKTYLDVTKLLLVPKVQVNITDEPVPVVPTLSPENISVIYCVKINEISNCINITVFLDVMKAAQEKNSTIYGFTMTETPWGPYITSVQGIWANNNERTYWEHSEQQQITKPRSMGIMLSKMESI
Kind of experiment: SPR (Biacore T200), mAb immobilised on CM5 chip, antigen injected at 25-1600 nM, 1:1 fit. The method, then: (§1) The binding parameters of the interaction between the anti-Hog TCN1 monoclonal antibodies and the TCN1 protein were determined in kinetics experiments using Biacore T200 equipped with Biacore T200 Control Software Version 2.0.1 (GE Healthcare Bio-Sciences, Pittsburgh, Pa.). Anti-Hog TCN1 mAbs were immobilized at 700-5,000 RU density on the carboxymethyl dextran surface in flow cells 2, 3, and 4 of the CM5 sensor chip using amino-coupling chemistry. Control antibody was immobilized in flow cell 1 for bulk effects subtraction. Recombinant Pig TCN1 (LifeSpan BioSciences, LS-G23154, Seattle, Wash.) or native Hog R-protein were injected over the surfaces with immobilized mAbs during 8 minutes at a 30 μL/min flow rate followed by 20 minutes of dissociation. The buffer blanks were run in triplicate by injection of running buffer (10 mM HEPES, 150 mM NaCl, 0.05% P-20, pH 7.4) and used to double-reference the mAb-binding data before fitting. After each cycle of binding, the surface was regenerated by two consecutive injections of 10 mM Glycine, pH 2.0 and 0.1 M Sodium Bicarbonate, pH 8.5 for 30 seconds each at a 30 μL/min flow rate. Kinetic data were collected over 25-1600 nM antigen concentrations and globally fitted to a simple 1:1 interaction model. Biacore T200 Evaluation Software Version 3.0 (GE Healthcare Bio-Sciences) was used to determine the binding parameters of the Hog TCN1 specific mAbs interaction. Kinetic parameters of the binding of the anti-Hog TCN1 monoclonal antibodies with rec Pig TCN1 and native Hog R-protein are presented in Table 5.
A general note: Surface plasmon resonance follows binding to a sensor surface in real time, without labels.

Experiment [3] concerns the target T3, R2 peptide (Hog TCN1 Peptide 80-89) (Sus scrofa).
T3 construct: Synthetic peptide QDDXNRRDXS, X = norleucine; also called synthetic R2 peptide
T3 peptide: QDD[Nle]NRRD[Nle]S
The experiment in a line: ELISA, antigen titrated on the plate (2-fold from 8 µg/mL), mAb at 1 µg/mL, goat anti-mouse IgG-HRP, OD 650 nm. The method, then: (§2) Purified mAbs were tested in an ELISA assay for binding to corresponding peptide, partially purified native Hog-R-protein, and recombinant Pig TCN1 (Lifespan BioSciences, LS-G23154, Seattle, Wash.), and Hog Intrinsic Factor. For this purpose, 2-fold dilution of the antigens starting from 8 μg/mL in PBS were placed in the wells of ELISA plates at 50 μl per well for 1 hour at room temperature. The plates were flicked dry, blocked with 200 μl per well of blocking solution, and washed three times as described above. Monoclonal antibodies to Hog TCN1 peptides at 1 μg/mL in PBS were added at 50 μl per well. After 1-hour incubation, the plates were washed again, and goat anti-mouse IgG-HRP conjugate diluted 1:3,000 in blocking solution was added at 50 μl per well for 1 hour. The plates were washed, and TMB substrate (Moss, Pasadena, Md.) was added at 100 μl per well for 15 minutes. Plates were read at 650 nm using an ELISA plate reader.

Experiment [4] has as its target T1, Hog Intrinsic Factor. The experiment in a line: ELISA, antigen titrated on the plate, mAb at 1 µg/mL, goat anti-mouse IgG-HRP, OD 650 nm. The method, then:
as §2

Experiment [5] concerns the target T4, native Hog R-protein (glycosylated Hog TCN1 purified from crude powdered extract of hog gastric mucosa) (Sus scrofa, UniProt P17630 26-417, glycosylated, up to about 50% w/w carbohydrates).
T4 construct: Mw about 70-92 kDa; The native preparation used for Biacore is not described further; also called native Hog TCN1; partially purified native Hog R-protein
T4 sequence: T2 sequence
The experiment in a line: SPR (Biacore T200), mAb immobilised on CM5 chip, antigen injected at 25-1600 nM, 1:1 fit. The method, then:
as §1

For experiment [6], the target named is T2, recombinant yeast-produced …. The experiment in a line: SPR (Biacore T200); reference is the same mAb on native Hog R-protein. As for the experimental part:
as §1, with “Biacore T200 Evaluation Software Version 3.0 (GE Healthcare Bio-Sciences) was used to determine the binding parameters of the Hog TCN1 specific mAbs interaction. Kinetic parameters of the binding of the anti-Hog TCN1 monoclonal antibodies with rec Pig TCN1 and native Hog R-protein are presented in Table 5.” left out

In experiment [7] the target is T4, native Hog R-protein (glycosylated Hog …). Kind of experiment: SPR (Biacore T200), mAb immobilised on CM5 chip, antigen injected at 25-1600 nM, 1:1 fit; native Hog R-protein (heavily glycosylated). The method, then: as §1, with “Biacore T200 Evaluation Software Version 3.0 (GE Healthcare Bio-Sciences) was used to determine the binding parameters of the Hog TCN1 specific mAbs interaction. Kinetic parameters of the binding of the anti-Hog TCN1 monoclonal antibodies with rec Pig TCN1 and native Hog R-protein are presented in Table 5.” left out

The target of experiment [8] is T2, recombinant yeast-produced …. The experiment in a line: SPR (Biacore T200), mAb immobilised on CM5 chip, antigen injected at 25-1600 nM, 1:1 fit; rec TCN1 protein (non-glycosylated, yeast-produced). As for the experimental part: as §1, with “Biacore T200 Evaluation Software Version 3.0 (GE Healthcare Bio-Sciences) was used to determine the binding parameters of the Hog TCN1 specific mAbs interaction. Kinetic parameters of the binding of the anti-Hog TCN1 monoclonal antibodies with rec Pig TCN1 and native Hog R-protein are presented in Table 5.” left out

Square brackets hold non-standard residues; d marks the D form. Ends that are not written are not given here. Nle = CCCC[C@H](N)C(=O)O A value given as a limit tells only on which side of the number the result lay.

B1: 171J 3F1 monoclonal antibody (antibody, mouse IgG1, V domains shown)
VH: EVQLQQSGPELLKPGVSVMISCRASGYTFTDYTMHWVKQSHGESLEWIGGIIPKSGTSNYNEKFKDKATLTVDKSSSTSYMELRSLTSEDSAVYYCARNYYDGGSYYFDYWGQGTTLTVSS
VL: DIQMTQSPASLSASVGETVTITCRTSGNIHNFLTWFQQKQGKSPQLLVYSAETLADGVPSRFSGSGSGTQFSLRINSLQPEDFGSYFCQHFWNTPFTFGSGTKLEMK
notes: Mouse IgG1, kappa, from a hybridoma (immunogen partially purified native Hog R-protein)
For the molecule B1, in experiment [1], the binding result is “no binding”. In experiment [2], the Kd was 2.3 nM, the koff turned out to be 0.000165 s⁻¹ and the kon was determined as 71500 M⁻¹ s⁻¹.

B2: 171B 1G5 monoclonal antibody (antibody, V domains shown)
VH: EVQLQESGPSLVKPSQTLSLTCSVTGDSITSDYWNWIRKFPGNKLEYMGYISYSGNTYYIPSLKSRISITRDTSKNQYYLQLNSVTSEDTATYYCARYDYDVYFSLDYWGQGTSVTVSS
VL: DVVMTQTPLSLPVSLGDQASISCRSSQSLVHSNRNTYLHWYLQRPGQSPKLLVYKVSNRFSGVPDRFSGSGSGTDFTLKISRVEAEDLGVYFCSQSTHVPLTFGAGTKLELKR
Turning to B2, in experiment [2], the Kd was 72.3 nM, the koff was found to be 0.0047 s⁻¹ and the kon worked out at 65000 M⁻¹ s⁻¹. Also, in experiment [3], the binding result was “binds”. For the same molecule, the binding result in experiment [4] was “no binding”.

B3: 171J 5H12 monoclonal antibody (antibody, mouse IgG1, V domains shown)
VH: QVQLQQSGAELVKPGASVKISCKASGYAFSSSWMNWVKQRPGKGLEWIGQIYPGDGDTNYNGKFKDKATLTADKSSNTAYMQLSSLTSEDSAVYFCARVNWDAFSYIDVWGTGTTVTVSS
VL: DIKMTQSPSSMYESLGERVTITCRASQDINVYLSWFQQKPGESPKTLIYRADRLVDGVPSRFSGSGSGQDYSLTISSLEYEDVGIYYCLQYDEFPYTFGGGTKLEIK
notes: as for B1
As to B3, the binding result in experiment [1] was “no binding”. Moreover, in experiment [5], the affinity, expressed as Kd, was 0.17 nM; the koff was 1.9e-05 s⁻¹; the kon came out at 115000 M⁻¹ s⁻¹.

B4: 171J 9G7 monoclonal antibody (antibody, mouse IgG1, V domains shown)
VH: EVQLQQSGAELVKPGASVKLSCTGSGFNIEDIYIHWVKQRPEQGLEWIGRMDPANGDTVYASKFQGKATMTADTSSNTAYMQLSSLTSGDTAVYYCARVFDYWGQGTSLTVSS
VL: DVVMTQTPLSLPVSLGDQASISCRSSQNLVHSNGYTYLHWYLQKPGQSPKLLIYKVSNRFSGVPDRFSGSGSGTDFTLKISRVEAEDLGVYFCSQNTHVPYTFGGGTKLEIK
notes: as for B1
As to B4, in experiment [1], the binding result was “no binding”. In experiment [5], this molecule gave a koff of 0.00069 s⁻¹ and a kon of 4830 M⁻¹ s⁻¹. Also, in experiment [6], the “fold higher affinity than to native Hog R-protein” value is more than 500 fold. The same molecule returned an equilibrium dissociation constant (Kd) in experiment [7] of 143 nM. Further, the kon in experiment [8] is 50600 M⁻¹ s⁻¹.

B5: 171J 3A6 monoclonal antibody (antibody, mouse IgG2b, V domains shown)
VH: QVQLQQPGAELVRPGALVKLSCKASGYTFTRYWIQWVKQRPGQGLEWIGNISPNSGSVNYSEKFKGKATLTVDKPSSTAYMQLNSLTSEDSAAYYCVRSGGDYFDYWGQGTTLTVSS
VL: DVLMTQTPLSLPVSLGVQASISCRSSQSILHANGNTYLEWYLQKPGQSPKLLIYKVSNRFSGVPDRFSGSGSGTDFTLYISRVEAEDLGVYYCFQGSHLPWTFGGGTKLEIK
notes: Mouse IgG2b, kappa, from a hybridoma (immunogen partially purified native Hog R-protein)
Turning to B5, the binding result in experiment [1] is “no binding”. Besides, in experiment [2], the Kd came to 2.6 nM, the koff turned out to be 6.81e-05 s⁻¹ and the kon was 26000 M⁻¹ s⁻¹.
